Literature values in PMC4623604, “Discovery of Small Molecules that Inhibit the Disordered Protein, p27^Kip1” (Scientific Reports, 2015).

Target: cyclin A (Homo sapiens) (UniProt P20248)
Sequence (P20248 whole entry): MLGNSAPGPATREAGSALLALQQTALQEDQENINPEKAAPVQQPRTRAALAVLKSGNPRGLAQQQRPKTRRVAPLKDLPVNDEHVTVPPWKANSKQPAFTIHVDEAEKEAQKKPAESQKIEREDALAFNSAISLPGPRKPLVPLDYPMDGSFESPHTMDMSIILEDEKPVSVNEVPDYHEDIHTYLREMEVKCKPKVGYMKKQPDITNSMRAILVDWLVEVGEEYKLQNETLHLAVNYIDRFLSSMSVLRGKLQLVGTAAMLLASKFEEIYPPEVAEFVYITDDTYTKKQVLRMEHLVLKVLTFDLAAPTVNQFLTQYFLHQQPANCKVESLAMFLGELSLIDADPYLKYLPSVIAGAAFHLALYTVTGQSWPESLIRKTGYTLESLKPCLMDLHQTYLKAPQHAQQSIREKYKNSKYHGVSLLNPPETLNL

In the case of p27 D1 (from UniProt P46527), the Kd is given as 42 nM.
